{"source": "patent US8338123B2", "about": "“Food production process” (DSM IP Assets B.V., priority 2002, dated 2012)", "molecules": {"B1": {"name": "Aspergillus niger asparaginase ASPA01, SEQ ID NO: 3 (Aspergillus niger CBS 513.88) (protein)", "chain": "SPLLYSRTTNETFVFTNANGLNFTQMNTTLPNVTIFATGGTIAGSDSSSTATTGYTSGAVGVLSLIDAVPSMLDVANVAGVQVANVGSEDITSDILISMSKKLNRVVCEDPTMAGAVITHGTDTLEETAFFLDATVNCGKPIVIVGAMRPSTAISADGPFNLLEAVTVAASTSARDRGAMVVMNDRIASAYYVTKTNANTMDTFKAMEMGYLGEMISNTPFFFYPPVKPTGKVAFDITNVTEIPRVDILFSYEDMHNDTLYNAISSGAQGIVIAGAGAGGVTTSFNEAIEDVINRLEIPVVQSMRTVNGEVPLSDVSSDTATHIASGYLNPQKSRILLGLLLSQGKNITEIADVFALGTDA"}}, "key": {"humans": {"test_system": "humans", "settings": "life-long exposure, daily uptake 1.6 ug acrylamide/kg; cited from earlier work"}, "[1]": {"substrate": "NC(=O)C[C@H](N)C(=O)O", "assay": "purified protein, by the assay type", "settings": "other: substrate L-asparagine, pH 5.5, 37° C."}}}
{"molecule": "C=CC(N)=O", "note": "[acrylamide]", "values": [{"measurement": "cancer risk", "setting": "humans", "result": "7*10^−3"}]}
{"molecule": "B1", "values": [{"measurement": "Km", "setting": "[1]", "result": "2400 ± 300", "unit": "µM"}, {"measurement": "Vmax", "setting": "[1]", "result": 1100, "unit": "µmol/min/mg"}]}
